The values below come from patent US20110130328A1 (THE ADMINISTRATORS OF THE TULANE EDUCATIONAL FUND, published 2011).

No end group written: not given here.

The test has as its target envelope glycoproteins E1 and E2 of the H77 strain of HCV, on HIV-core pseudotype virions (hepatitis C virus strain H77, UniProt P27958). Nature of the test: cell-based or functional assay.
Turning to VATRDGKLPTTQLRRHID [peptide 61 (18 mer of E1 of HCV strain H77)], the “Percent Inhibition of infection by the H77-E1E2 pseudotype (luciferase), peptide at about 25 µM” value (shortened to “Percent Inhibition of infection … at about 25 µM”) was -30.8%.

Regarding DAILHTPGCVPCVREGNA [peptide 57 (18 mer of E1 of HCV strain H77)], the “Percent Inhibition of infection … at about 25 µM” value is -49.4%.

LLRIPQAIMDMIAGAHWG [peptide 74 (18 mer of E1 of HCV strain H77)]: the “Percent Inhibition of infection … at about 25 µM” value was 71.1%.

For the molecule ALYVGDLCGSVFLVGQLF (not fully specified) [peptide 65 (18 mer of E1 of HCV strain H77)], the “Percent Inhibition of infection by the H77-E1E2 pseudotype (luciferase), peptide marked by asterisk: actual concentration 10 µM or less” value was 22.9%.

Turning to LPTTQLRRHIDLLVGSAT [peptide 62 (18 mer of E1 of HCV strain H77)], the “Percent Inhibition of infection … at about 25 µM” value was -1.96%.

For the molecule GCVPCVREGNASRCWVAV [peptide 58 (18 mer of E1 of HCV strain H77)], the “Percent Inhibition of infection … at about 25 µM” value was -4.42%.

As for SCLTVPASAYQVRNSSGL [peptide 52 (18 mer of E1 of HCV strain H77)], the “Percent Inhibition of infection … at about 25 µM” value was -17.2%.

GQLFTFSPRHHWTTQDCN [peptide 67 (18 mer of E1 of HCV strain H77)]: the “Percent Inhibition of infection … at about 25 µM” value is 43.2%.

Regarding VGNWAKVLVVLLLFAGVD [peptide 78 (18 mer of E1 of HCV strain H77)], the “Percent Inhibition of infection by the H77-E1E2 pseudotype (luciferase), peptide marked by asterisk: actual concentration 10 µM or less” value was -21.1%.

On to AHWGVLAGIKYFSMVGNW [peptide 76 (18 mer of E1 of HCV strain H77)], for which the “Percent Inhibition of infection … at about 25 µM” value was determined as 15.3%.

Consider MMNWSPTAALVVAQLLRI [peptide 72 (18 mer of E1 of HCV strain H77)], for which the “Percent Inhibition of infection … at about 25 µM” value was 33.4%.

Consider SSGLYHVTNDCPNSSIVY [peptide 54 (18 mer of E1 of HCV strain H77)], for which the “Percent Inhibition of infection … at about 25 µM” value was 99.9%.

On to IMDMIAGAHWGVLAGIKY [peptide 75 (18 mer of E1 of HCV strain H77)], for which the “Percent Inhibition of infection … at about 25 µM” value stood at 0.32%.

Take GSATLCSALYVGDLCGSV [peptide 64 (18 mer of E1 of HCV strain H77)]: the “Percent Inhibition of infection … at about 25 µM” value is 0.55%.

On to LVVLLLFAGVDAETHVTG [peptide 79 (18 mer of E1 of HCV strain H77)], for which the “Percent Inhibition of infection … at about 25 µM” value worked out at 10.6%.

With SAYQVRNSSGLYHVTNDC [peptide 53 (18 mer of E1 of HCV strain H77)], the “Percent Inhibition of infection … at about 25 µM” value was 0.23%.

On to SIVYEAADAILHTPGCVP [peptide 56 (18 mer of E1 of HCV strain H77)], for which the “Percent Inhibition of infection … at about 25 µM” value was determined as 42.3%.

With RHIDLLVGSATLCSALYV [peptide 63 (18 mer of E1 of HCV strain H77)], the “Percent Inhibition of infection … at about 25 µM” value is 49.1%.

Consider TNDCPNSSVVYEAADAIL [peptide 55 (18 mer of E1 of HCV strain H77)], for which the “Percent Inhibition of infection … at about 25 µM” value was 1.12%.

With QDCNCSIYPGHITGHRMA (not fully specified; cysteine pairing not given here) [peptide 69 (18 mer of E1 of HCV strain H77)], the “Percent Inhibition of infection by the H77-E1E2 pseudotype (luciferase), peptide marked by asterisk: actual concentration 10 µM or less” value was -73.1%.

Consider AALVVAQLLRIPQAIMDM [peptide 73 (18 mer of E1 of HCV strain H77)], for which the “Percent Inhibition of infection … at about 25 µM” value was 11.5%.

As for CGSVFLVGQLFTFSPRHH [peptide 66 (18 mer of E1 of HCV strain H77)], the “Percent Inhibition of infection … at about 25 µM” value was 79.5%.

On to PRHHWTTQDCNCSIYPGH [peptide 68 (18 mer of E1 of HCV strain H77)], for which the “Percent Inhibition of infection … at about 25 µM” value was determined as 31.3%.

For GIKYFSMVGNWAKVLVVL [peptide 77 (18 mer of E1 of HCV strain H77)], the “Percent Inhibition of infection … at about 25 µM” value stood at 50.4%.
